Experimental data taken from IntAct's records for PubMed 29892012.

B1: F-box/LRR-repeat protein 12 (Homo sapiens), Q9NXK8 (parent)
chain: MATLVELPDSVLLEIFSYLPVRDRIRISRVCHRWKRLVDDRWLWRHVDLTLYTMRPKVMWHLLRRYMASRLHSLRMGGYLFSGSQAPQLSPALLRALGQKCPNLKRLCLHVADLSMVPITSLPSTLRTLELHSCEISMAWLHKQQDPTVLPLLECIVLDRVPAFRDEHLQGLTRFRALRSLVLGGTYRVTETGLDAGLQELSYLQRLEVLGCTLSADSTLLAISRHLRDVRKIRLTVRGLSAPGLAVLEGMPALESLCLQGPLVTPEMPSPTEILSSCLTMPKLRVLELQGLGWEGQEAEKILCKGLPHCMVIVRACPKESMDWWM
partner: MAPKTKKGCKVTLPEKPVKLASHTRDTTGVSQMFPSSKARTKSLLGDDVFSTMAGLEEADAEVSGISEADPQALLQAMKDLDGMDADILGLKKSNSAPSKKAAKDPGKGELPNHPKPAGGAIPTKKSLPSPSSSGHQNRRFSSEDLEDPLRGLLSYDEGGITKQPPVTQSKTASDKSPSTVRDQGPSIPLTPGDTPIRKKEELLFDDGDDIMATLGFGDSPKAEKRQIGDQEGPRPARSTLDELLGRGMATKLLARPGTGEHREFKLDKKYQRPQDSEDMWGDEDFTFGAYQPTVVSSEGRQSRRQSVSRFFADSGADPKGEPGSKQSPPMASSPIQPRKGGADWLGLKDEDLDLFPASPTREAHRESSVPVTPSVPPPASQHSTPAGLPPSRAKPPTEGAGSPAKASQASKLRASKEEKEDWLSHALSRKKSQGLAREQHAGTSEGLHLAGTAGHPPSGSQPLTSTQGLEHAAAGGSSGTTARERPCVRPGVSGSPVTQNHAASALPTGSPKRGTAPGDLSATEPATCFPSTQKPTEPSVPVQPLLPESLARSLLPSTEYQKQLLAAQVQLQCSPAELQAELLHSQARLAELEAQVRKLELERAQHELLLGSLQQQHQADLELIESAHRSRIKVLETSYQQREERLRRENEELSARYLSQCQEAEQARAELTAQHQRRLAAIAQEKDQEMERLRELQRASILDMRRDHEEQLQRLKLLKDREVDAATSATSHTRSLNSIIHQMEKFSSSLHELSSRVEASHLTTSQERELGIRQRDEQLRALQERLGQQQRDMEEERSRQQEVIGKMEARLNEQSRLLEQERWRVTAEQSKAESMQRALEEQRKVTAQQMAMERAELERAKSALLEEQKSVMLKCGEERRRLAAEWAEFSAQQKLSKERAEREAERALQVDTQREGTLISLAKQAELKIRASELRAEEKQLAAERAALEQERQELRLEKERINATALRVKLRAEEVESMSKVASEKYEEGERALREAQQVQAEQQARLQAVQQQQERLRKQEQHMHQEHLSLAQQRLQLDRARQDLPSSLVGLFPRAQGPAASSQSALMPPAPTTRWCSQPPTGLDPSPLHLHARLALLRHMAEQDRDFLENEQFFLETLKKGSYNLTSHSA
B2: Keratin, type I cuticular Ha8 (Homo sapiens), O76015 (parent)
chain: MTSSYSSSSCPLGCTMAPGARNVSVSPIDIGCQPGAEANIAPMCLLANVAHANRVRVGSTPLGRPSLCLPPTCHTACPLPGTCHIPGNIGICGAYGENTLNGHEKETMQFLNDRLANYLEKVRQLEQENAELEATLLERSKCHESTVCPDYQSYFHTIEELQQKILCSKAENARLIVQIDNAKLAADDFRIKLESERSLRQLVEADKCGTQKLLDDATLAKADLEAQQESLKEEQLSLKSNHEQEVKILRSQLGEKLRIELDIEPTIDLNRVLGEMRAQYEAMLETNRQDVEQWFQAQSEGISLQDMSCSEELQCCQSEILELRCTVNALEVERQAQHTLKDCLQNSLCEAEDRFGTELAQMQSLISNVEEQLSEIRADLERQNQEYQVLLDVKTRLENEIATYRNLLESEDCKLPCNPCSTSPSCVTAPCAPRPSCGPCTTCGPTCGASTTGSRF

Variants of: B1
Details: with fbf1_human FBF1, Q8TES7

| Variant | effect of a mutation on the interaction |
| --- | --- |
| I313V | with no effect |

Variants of: B2
Details: with k22e_human KRT2, P35908
Sequence of k22e_human KRT2, P35908 (P35908 whole entry): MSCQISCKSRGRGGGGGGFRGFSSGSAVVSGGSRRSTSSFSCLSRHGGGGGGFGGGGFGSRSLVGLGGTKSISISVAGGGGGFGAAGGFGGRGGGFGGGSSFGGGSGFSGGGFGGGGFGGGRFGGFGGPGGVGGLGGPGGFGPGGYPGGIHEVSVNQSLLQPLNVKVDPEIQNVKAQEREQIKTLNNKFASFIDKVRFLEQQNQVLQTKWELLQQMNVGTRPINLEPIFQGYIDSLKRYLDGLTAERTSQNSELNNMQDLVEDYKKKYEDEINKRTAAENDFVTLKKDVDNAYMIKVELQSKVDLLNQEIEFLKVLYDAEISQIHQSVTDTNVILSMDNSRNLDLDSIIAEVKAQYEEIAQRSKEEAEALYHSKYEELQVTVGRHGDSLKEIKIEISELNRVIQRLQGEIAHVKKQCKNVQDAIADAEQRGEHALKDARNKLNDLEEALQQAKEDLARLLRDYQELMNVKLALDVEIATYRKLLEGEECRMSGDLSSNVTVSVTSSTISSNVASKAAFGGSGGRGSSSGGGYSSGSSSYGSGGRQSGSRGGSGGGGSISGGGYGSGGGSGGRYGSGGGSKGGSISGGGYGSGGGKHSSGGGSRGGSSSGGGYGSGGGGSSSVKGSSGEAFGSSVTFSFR

| Variant | effect of a mutation on the interaction |
| --- | --- |
| D306A | with no effect |

Variants of: B2
Details: with txnd5_human TXNDC5, Q8NBS9
Sequence of txnd5_human TXNDC5, Q8NBS9 (Q8NBS9 whole entry): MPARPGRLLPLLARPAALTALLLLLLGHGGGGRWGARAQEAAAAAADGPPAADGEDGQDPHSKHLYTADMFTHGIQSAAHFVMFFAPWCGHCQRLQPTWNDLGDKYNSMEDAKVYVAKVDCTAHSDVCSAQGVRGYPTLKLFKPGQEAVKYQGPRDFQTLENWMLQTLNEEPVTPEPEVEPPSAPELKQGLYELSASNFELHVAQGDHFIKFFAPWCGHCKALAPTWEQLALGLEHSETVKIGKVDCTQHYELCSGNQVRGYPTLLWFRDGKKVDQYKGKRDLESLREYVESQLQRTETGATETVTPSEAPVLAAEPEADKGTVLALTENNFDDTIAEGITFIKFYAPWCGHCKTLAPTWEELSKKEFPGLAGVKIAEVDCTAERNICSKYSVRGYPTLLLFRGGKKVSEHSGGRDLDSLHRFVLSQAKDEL

| Variant | effect of a mutation on the interaction |
| --- | --- |
| D306A | with no effect |

Variants of: B2
Details: with prs8_human PSMC5, P62195
Sequence of prs8_human PSMC5, P62195 (P62195 whole entry): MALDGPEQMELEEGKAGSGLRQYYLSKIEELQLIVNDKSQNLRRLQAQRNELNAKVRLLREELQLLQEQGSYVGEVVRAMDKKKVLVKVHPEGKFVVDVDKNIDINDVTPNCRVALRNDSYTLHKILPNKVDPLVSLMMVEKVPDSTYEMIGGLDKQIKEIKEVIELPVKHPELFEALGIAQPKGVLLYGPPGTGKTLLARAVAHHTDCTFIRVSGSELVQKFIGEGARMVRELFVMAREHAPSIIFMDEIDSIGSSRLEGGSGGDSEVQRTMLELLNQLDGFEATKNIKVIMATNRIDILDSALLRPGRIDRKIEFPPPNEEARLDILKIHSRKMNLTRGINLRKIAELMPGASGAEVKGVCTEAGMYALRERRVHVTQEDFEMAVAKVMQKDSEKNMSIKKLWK

| Variant | effect of a mutation on the interaction |
| --- | --- |
| D306A | with no effect |

Variants of: B2
Details: with p85b_human PIK3R2, O00459
Sequence of p85b_human PIK3R2, O00459 (O00459 whole entry): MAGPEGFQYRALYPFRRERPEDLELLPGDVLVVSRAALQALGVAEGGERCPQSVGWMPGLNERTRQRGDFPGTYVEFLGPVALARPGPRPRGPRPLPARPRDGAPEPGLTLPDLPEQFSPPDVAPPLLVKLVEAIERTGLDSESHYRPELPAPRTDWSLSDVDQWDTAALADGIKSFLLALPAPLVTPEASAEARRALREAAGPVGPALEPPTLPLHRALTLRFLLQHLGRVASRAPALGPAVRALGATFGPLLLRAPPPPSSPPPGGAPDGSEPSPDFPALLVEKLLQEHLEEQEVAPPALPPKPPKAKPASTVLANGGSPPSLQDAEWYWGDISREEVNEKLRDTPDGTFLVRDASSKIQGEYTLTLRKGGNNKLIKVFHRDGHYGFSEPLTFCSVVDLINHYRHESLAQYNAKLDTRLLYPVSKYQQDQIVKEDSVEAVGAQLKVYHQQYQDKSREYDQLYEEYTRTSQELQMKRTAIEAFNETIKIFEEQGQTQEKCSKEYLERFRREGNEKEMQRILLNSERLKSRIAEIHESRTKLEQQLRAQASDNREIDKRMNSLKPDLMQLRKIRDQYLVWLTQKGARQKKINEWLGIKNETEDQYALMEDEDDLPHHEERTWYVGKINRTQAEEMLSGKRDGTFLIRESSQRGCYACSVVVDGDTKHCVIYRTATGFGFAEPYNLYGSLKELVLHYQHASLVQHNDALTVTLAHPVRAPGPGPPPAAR

| Variant | effect of a mutation on the interaction |
| --- | --- |
| D306A | with no effect |

Variants of: B2
Details: with KRT6A

| Variant | effect of a mutation on the interaction |
| --- | --- |
| D306A | with no effect |

Variants of: B2
Details: with k2c4_human KRT4, P19013
Sequence of k2c4_human KRT4, P19013 (P19013 whole entry): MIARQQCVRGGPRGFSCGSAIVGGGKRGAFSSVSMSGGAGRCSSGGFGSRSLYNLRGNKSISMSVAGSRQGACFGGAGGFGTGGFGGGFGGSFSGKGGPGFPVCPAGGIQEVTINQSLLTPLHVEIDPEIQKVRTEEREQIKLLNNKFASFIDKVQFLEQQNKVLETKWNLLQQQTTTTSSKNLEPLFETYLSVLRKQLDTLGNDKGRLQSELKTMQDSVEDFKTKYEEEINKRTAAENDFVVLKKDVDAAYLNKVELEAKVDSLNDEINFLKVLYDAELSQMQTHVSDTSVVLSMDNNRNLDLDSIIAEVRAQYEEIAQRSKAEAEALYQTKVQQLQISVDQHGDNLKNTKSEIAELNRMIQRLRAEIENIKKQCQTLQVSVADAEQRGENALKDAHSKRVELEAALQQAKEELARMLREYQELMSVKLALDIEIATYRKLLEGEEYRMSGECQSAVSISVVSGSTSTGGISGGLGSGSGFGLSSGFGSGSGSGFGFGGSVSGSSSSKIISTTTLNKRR

| Variant | effect of a mutation on the interaction |
| --- | --- |
| D306A | with no effect |

Variants of: B2
Details: with txlnb_human TXLNB

| Variant | effect of a mutation on the interaction |
| --- | --- |
| D306A | with no effect |

Variants of: B2
Details: with KRT79, Q5XKE5
Sequence of KRT79, Q5XKE5 (Q5XKE5 whole entry): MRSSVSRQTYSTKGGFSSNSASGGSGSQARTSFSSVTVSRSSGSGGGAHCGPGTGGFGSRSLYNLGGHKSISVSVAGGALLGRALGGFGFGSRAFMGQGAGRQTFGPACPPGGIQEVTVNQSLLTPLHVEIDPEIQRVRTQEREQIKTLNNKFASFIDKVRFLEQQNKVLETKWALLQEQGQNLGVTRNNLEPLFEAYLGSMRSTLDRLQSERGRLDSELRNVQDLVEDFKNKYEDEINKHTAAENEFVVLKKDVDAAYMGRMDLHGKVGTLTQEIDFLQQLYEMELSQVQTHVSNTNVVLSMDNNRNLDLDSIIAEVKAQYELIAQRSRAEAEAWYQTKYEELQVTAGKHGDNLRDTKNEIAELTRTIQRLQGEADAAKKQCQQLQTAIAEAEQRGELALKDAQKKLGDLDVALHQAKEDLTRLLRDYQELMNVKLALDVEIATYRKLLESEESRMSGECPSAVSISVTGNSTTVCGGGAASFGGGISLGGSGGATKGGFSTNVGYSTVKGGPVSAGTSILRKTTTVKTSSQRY

| Variant | effect of a mutation on the interaction |
| --- | --- |
| D306A | with no effect |

Variants of: B2
Details: with txlna_human TXLNA

| Variant | effect of a mutation on the interaction |
| --- | --- |
| D306A | with no effect |
